T1: M2-1 WT (Human respiratory syncytial virus …, UniProt P04545 1-194)
T1 sequence: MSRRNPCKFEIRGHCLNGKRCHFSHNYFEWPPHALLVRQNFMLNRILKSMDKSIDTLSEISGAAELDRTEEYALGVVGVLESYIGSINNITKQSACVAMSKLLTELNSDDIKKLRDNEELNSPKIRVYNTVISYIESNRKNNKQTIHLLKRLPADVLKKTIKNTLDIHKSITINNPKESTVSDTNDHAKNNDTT

B1: SH 13-nt positive-sense gene-end RNA (ssRNA)
RNA: AGUUAAUUAAAAA
B2: SH7 (ssRNA)
RNA: AGUUAAU

What was measured:
[1] = target: T1, M2-1 WT; experiment: MST
[2] = target: T1, M2-1 WT; experiment: X-ray crystallography

Binder | Kd [1] | binding result [2]
B1 | 870 nM | –
B2 | – | binds
